From publication doi:10.1101/2022.04.12.488087 (bioRxiv, 2022) come the findings set out here.

The target of test [1] is T1, SARS-CoV-2 wild type receptor binding domain (RBD) (SARS-CoV-2, UniProt P0DTC2). Put plainly: crystal structure.
Test [2] addresses T1, SARS-CoV-2 wild type receptor binding …. Description: SPR.

B1: nanobody Nb70 (VHH with 6xHis tag, for crystal structural analysis) (VHH)
VHH: QVQLVESGGGLVQAGGSLRLSCVASGRTFSRYAMGWFRQAPGKEREFVAVIEWDGGTSYYVDSVKGRFTISRDNAKNTVYLQMNSLKPEDTAVYYCAAGGNQYYSATYSIWNEYDFWGQGTQVTVSS
For the molecule B1, in test [1], the binding result is given as “binds”.

B2: nanobody 3-2A2-4 (VHH with 6xHis tag, for crystal structural analysis) (VHH)
VHH: QVQLQESGGGLVQPGESLRLSCAASGSISTLNVMGWYRQAPGKQRELVAQITLDGSPEYADSVKGRFTITKDGAQSTLYLQMNNLKPEDTAVYFCKLENGGFFYYWGQGTQVTVST
As to B2, in test [1], the binding result is given as “binds”.

B3: VHH72, previously published nanobody (VHH)
VHH: QVQLQESGGGLVQAGGSLRLSCAASGRTFSEYAMGWFRQAPGKEREFVATISWSGGSTYYTDSVKGRFTISRDNAKNTVYLQMNSLKPDDTAVYYCAAAGLGTVVSEWDYDYDYWGQGTQVTVSS
In the case of B3, the binding result in test [2] is reported as “binds”.
